Results published in IntAct's records for PubMed 22796944.

Experiments:
rtf1_yeast RTF1 = rtf1_yeast RTF1 (UniProt P53064)
cdc73_yeast CDC73 = cdc73_yeast CDC73 (UniProt Q06697)
Chain of cdc73_yeast CDC73 (Q06697 whole entry): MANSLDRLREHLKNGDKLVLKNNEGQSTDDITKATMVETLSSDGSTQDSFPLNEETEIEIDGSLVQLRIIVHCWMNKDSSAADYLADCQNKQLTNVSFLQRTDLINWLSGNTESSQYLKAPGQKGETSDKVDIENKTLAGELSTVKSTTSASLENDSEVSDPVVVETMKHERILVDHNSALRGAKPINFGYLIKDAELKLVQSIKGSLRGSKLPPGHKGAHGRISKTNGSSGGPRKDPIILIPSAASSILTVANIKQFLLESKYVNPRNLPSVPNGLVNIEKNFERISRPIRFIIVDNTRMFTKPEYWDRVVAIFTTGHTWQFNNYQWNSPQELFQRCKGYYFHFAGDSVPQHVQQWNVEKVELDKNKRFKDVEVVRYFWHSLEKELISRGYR

Chain of rtf1_yeast RTF1 (P53064 whole entry): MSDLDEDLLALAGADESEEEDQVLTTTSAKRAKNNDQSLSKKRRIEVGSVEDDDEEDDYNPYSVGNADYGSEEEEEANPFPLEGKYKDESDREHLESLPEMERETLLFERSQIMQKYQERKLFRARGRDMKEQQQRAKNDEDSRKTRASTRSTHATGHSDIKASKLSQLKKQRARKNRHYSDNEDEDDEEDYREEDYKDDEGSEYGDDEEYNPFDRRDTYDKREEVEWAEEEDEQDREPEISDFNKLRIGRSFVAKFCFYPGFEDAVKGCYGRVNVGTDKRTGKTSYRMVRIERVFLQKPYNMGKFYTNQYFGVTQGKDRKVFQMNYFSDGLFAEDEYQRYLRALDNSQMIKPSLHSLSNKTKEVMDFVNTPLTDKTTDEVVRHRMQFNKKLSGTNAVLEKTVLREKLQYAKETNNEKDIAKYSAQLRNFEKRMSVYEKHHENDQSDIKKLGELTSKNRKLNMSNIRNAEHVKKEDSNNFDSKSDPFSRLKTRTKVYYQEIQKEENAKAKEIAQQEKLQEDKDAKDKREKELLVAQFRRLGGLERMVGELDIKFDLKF

| effect of a mutation on the interaction (rtf1_yeast RTF1) | effect of a mutation on the interaction (cdc73_yeast CDC73) | Substance |
| --- | --- | --- |
| disrupting interaction | decreasing interaction | DNA-directed RNA polymerase II subunit RPB1 (Saccharomyces cerevisiae), P04050 S1560D |
| disrupting interaction | decreasing interaction | DNA-directed RNA polymerase II subunit RPB1 (Saccharomyces cerevisiae), P04050 S1557D |
